From US20230235013A1 (MABSOLVE, published 2023)

Tests used:
[1] = molecular target: T1, Human C1q (Sigma Cat. No. 20476), HRP-labelled (human, UniProt P02745 23-245; P02746 28-253; P02747 29-245); assay: ELISA, antibody coated, HRP-C1q; Expt 2, buffer alone 0.091
T1 construct: Coupled to horse-radish peroxidase with Lightning-Link kit; also called HRP-labelled C1q

[2] = molecular target: T2, human FcRn (R&D Systems Cat. No. 8639-Fc) (human, UniProt P55899 24-297; P61769 21-119); assay: SPR, FcRn captured; Expt 2
[3] = molecular target: T1, Human C1q (Sigma Cat. No. 20476), …; assay: ELISA, antibody coated, HRP-C1q; Expt 3, buffer alone 0.102
[4] = molecular target: T2, human FcRn (R&D Systems Cat. No. …); assay: SPR, FcRn captured; Expt 1
[5] = molecular target: T2, human FcRn (R&D Systems Cat. No. …); assay: SPR, FcRn captured; Expt 3
[6] = molecular target: T2, human FcRn (R&D Systems Cat. No. …); assay: SPR, FcRn captured; Mean
[7] = molecular target: T1, Human C1q (Sigma Cat. No. 20476), …; assay: ELISA, antibody coated, HRP-C1q; Expt 2, buffer alone 0.051
[8] = molecular target: T1, Human C1q (Sigma Cat. No. 20476), …; assay: ELISA, antibody coated, HRP-C1q; Expt 1, buffer alone 0.053
[9] = molecular target: T3, C-terminus biotinylated human FcRn attached to Streptavidin-SmBiT (FcRn-SAv-SmBiT) (human, UniProt P55899 24-297; P61769 21-119, limits assumed, C-terminus biotinylated (AviTag), attached to Streptavidin-SmBiT); assay: NanoBiT FcRn competition immunoassay, competitor Tracer-LgBiT human IgG, pH 6.0
T3 construct: Kit reagent; also called hFcRn-AviTag

[10] = molecular target: T1, Human C1q (Sigma Cat. No. 20476), …; assay: ELISA, antibody coated, HRP-C1q; Expt 1, buffer alone 0.061

| Binder | Mean Absorbance [1] | Corrected and normalised response (% of wild-type reference) [2] | Mean Absorbance [3] | Corrected and normalised response (% of wild-type reference) [4] | Corrected and normalised response (% of wild-type reference) [5] | Corrected and normalised response (% of wild-type reference) [6] | Mean Absorbance [7] | Mean Absorbance [8] | Mean binding activity (% of wild-type reference) [9] | Mean Absorbance [10] |
| --- | --- | --- | --- | --- | --- | --- | --- | --- | --- | --- |
| anti-CD20 (rituximab) human IgG1 L234S/L235G/G236R (antibody, EU numbering; also called 2-47; 1-140; copies: 2 + 2) heavy: QVQLQQPGAELVKPGASVKMSCKASGYTFTSYNMHWVKQTPGRGLEWIGAIYPGNGDTSYNQKFKGKATLTADKSSSTAYMQLSSLTSEDSAVYYCARSTYYGGDWYFNVWGAGTTVTVSSASTKGPSVFPLAPSSKSTSGGTAALGCLVKDYFPEPVTVSWNSGALTSGVHTFPAVLQSSGLYSLSSVVTVPSSSLGTQTYICNVNHKPSNTKVDKKVEPKSCDKTHTCPPCPAPESGRGPSVFLFPPKPKDTLMISRTPEVTCVVVDVSHEDPEVKFNWYVDGVEVHNAKTKPREEQYNSTYRVVSVLTVLHQDWLNGKEYKCKVSNKALPAPIEKTISKAKGQPREPQVYTLPPSRDELTKNQVSLTCLVKGFYPSDIAVEWESNGQPENNYKTTPPVLDSDGSFFLYSKLTVDKSRWQQGNVFSCSVMHEALHNHYTQKSLSLSPGK light: QIVLSQSPAILSASPGEKVTMTCRASSSVSYIHWFQQKPGSSPKPWIYATSNLASGVPVRFSGSGSGTSYSLTISRVEAEDAATYYCQQWTSNPPTFGGGTKLEIKRTVAAPSVFIFPPSDEQLKSGTASVVCLLNNFYPREAKVQWKVDNALQSGNSQESVTEQDSKDSTYSLSSTLTLSKADYEKHKVYACEVTHQGLSSPVTKSFNRGEC | 0.074 absorbance (450 nm) | 101 % of wild-type reference | 0.087 absorbance (450 nm) | 100 % of wild-type reference | 100 % of wild-type reference | 100 % of wild-type reference |  |  |  |  |
| anti-CD20 (rituximab variable regions) human IgG4 L234Q/L235S/G236R (with S228P) (antibody, copies: 2 + 2) heavy: QVQLQQPGAELVKPGASVKMSCKASGYTFTSYNMHWVKQTPGRGLEWIGAIYPGNGDTSYNQKFKGKATLTADKSSSTAYMQLSSLTSEDSAVYYCARSTYYGGDWYFNVWGAGTTVTVSSASTKGPSVFPLAPCSRSTSESTAALGCLVKDYFPEPVTVSWNSGALTSGVHTFPAVLQSSGLYSLSSVVTVPSSSLGTKTYTCNVDHKPSNTKVDKRVESKYGPPCPPCPAPEQSRGPSVFLFPPKPKDTLMISRTPEVTCVVVDVSQEDPEVQFNWYVDGVEVHNAKTKPREEQFNSTYRVVSVLTVLHQDWLNGKEYKCKVSNKGLPSSIEKTISKAKGQPREPQVYTLPPSQEEMTKNQVSLTCLVKGFYPSDIAVEWESNGQPENNYKTTPPVLDSDGSFFLYSRLTVDKSRWQEGNVFSCSVMHEALHNHYTQKSLSLSLGK light: QIVLSQSPAILSASPGEKVTMTCRASSSVSYIHWFQQKPGSSPKPWIYATSNLASGVPVRFSGSGSGTSYSLTISRVEAEDAATYYCQQWTSNPPTFGGGTKLEIKRTVAAPSVFIFPPSDEQLKSGTASVVCLLNNFYPREAKVQWKVDNALQSGNSQESVTEQDSKDSTYSLSSTLTLSKADYEKHKVYACEVTHQGLSSPVTKSFNRGEC |  |  |  |  |  |  | 0.052 absorbance (450 nm) | 0.051 absorbance (450 nm) | 114 % of wild-type reference |  |
| anti-CD20 (rituximab) human IgG1 L234S/L235V/G236R (antibody, EU numbering; also called 2-53; copies: 2 + 2) heavy: QVQLQQPGAELVKPGASVKMSCKASGYTFTSYNMHWVKQTPGRGLEWIGAIYPGNGDTSYNQKFKGKATLTADKSSSTAYMQLSSLTSEDSAVYYCARSTYYGGDWYFNVWGAGTTVTVSSASTKGPSVFPLAPSSKSTSGGTAALGCLVKDYFPEPVTVSWNSGALTSGVHTFPAVLQSSGLYSLSSVVTVPSSSLGTQTYICNVNHKPSNTKVDKKVEPKSCDKTHTCPPCPAPESVRGPSVFLFPPKPKDTLMISRTPEVTCVVVDVSHEDPEVKFNWYVDGVEVHNAKTKPREEQYNSTYRVVSVLTVLHQDWLNGKEYKCKVSNKALPAPIEKTISKAKGQPREPQVYTLPPSRDELTKNQVSLTCLVKGFYPSDIAVEWESNGQPENNYKTTPPVLDSDGSFFLYSKLTVDKSRWQQGNVFSCSVMHEALHNHYTQKSLSLSPGK light: QIVLSQSPAILSASPGEKVTMTCRASSSVSYIHWFQQKPGSSPKPWIYATSNLASGVPVRFSGSGSGTSYSLTISRVEAEDAATYYCQQWTSNPPTFGGGTKLEIKRTVAAPSVFIFPPSDEQLKSGTASVVCLLNNFYPREAKVQWKVDNALQSGNSQESVTEQDSKDSTYSLSSTLTLSKADYEKHKVYACEVTHQGLSSPVTKSFNRGEC | 0.09 absorbance (450 nm) |  |  |  |  |  |  |  | 94.1 % of wild-type reference | 0.072 absorbance (450 nm) |
| anti-CD20 (rituximab) human IgG1 L234T/L235Q/G236R (antibody, EU numbering; also called 2-60; copies: 2 + 2) heavy: QVQLQQPGAELVKPGASVKMSCKASGYTFTSYNMHWVKQTPGRGLEWIGAIYPGNGDTSYNQKFKGKATLTADKSSSTAYMQLSSLTSEDSAVYYCARSTYYGGDWYFNVWGAGTTVTVSSASTKGPSVFPLAPSSKSTSGGTAALGCLVKDYFPEPVTVSWNSGALTSGVHTFPAVLQSSGLYSLSSVVTVPSSSLGTQTYICNVNHKPSNTKVDKKVEPKSCDKTHTCPPCPAPETQRGPSVFLFPPKPKDTLMISRTPEVTCVVVDVSHEDPEVKFNWYVDGVEVHNAKTKPREEQYNSTYRVVSVLTVLHQDWLNGKEYKCKVSNKALPAPIEKTISKAKGQPREPQVYTLPPSRDELTKNQVSLTCLVKGFYPSDIAVEWESNGQPENNYKTTPPVLDSDGSFFLYSKLTVDKSRWQQGNVFSCSVMHEALHNHYTQKSLSLSPGK light: QIVLSQSPAILSASPGEKVTMTCRASSSVSYIHWFQQKPGSSPKPWIYATSNLASGVPVRFSGSGSGTSYSLTISRVEAEDAATYYCQQWTSNPPTFGGGTKLEIKRTVAAPSVFIFPPSDEQLKSGTASVVCLLNNFYPREAKVQWKVDNALQSGNSQESVTEQDSKDSTYSLSSTLTLSKADYEKHKVYACEVTHQGLSSPVTKSFNRGEC | 0.077 absorbance (450 nm) | 96.1 % of wild-type reference |  | 94.6 % of wild-type reference | 94.3 % of wild-type reference | 95 % of wild-type reference |  |  | 84.7 % of wild-type reference | 0.049 absorbance (450 nm) |
| anti-CD20 (rituximab) human IgG1 L234T/L235S/G236R (antibody, EU numbering; also called 2-62; copies: 2 + 2) heavy: QVQLQQPGAELVKPGASVKMSCKASGYTFTSYNMHWVKQTPGRGLEWIGAIYPGNGDTSYNQKFKGKATLTADKSSSTAYMQLSSLTSEDSAVYYCARSTYYGGDWYFNVWGAGTTVTVSSASTKGPSVFPLAPSSKSTSGGTAALGCLVKDYFPEPVTVSWNSGALTSGVHTFPAVLQSSGLYSLSSVVTVPSSSLGTQTYICNVNHKPSNTKVDKKVEPKSCDKTHTCPPCPAPETSRGPSVFLFPPKPKDTLMISRTPEVTCVVVDVSHEDPEVKFNWYVDGVEVHNAKTKPREEQYNSTYRVVSVLTVLHQDWLNGKEYKCKVSNKALPAPIEKTISKAKGQPREPQVYTLPPSRDELTKNQVSLTCLVKGFYPSDIAVEWESNGQPENNYKTTPPVLDSDGSFFLYSKLTVDKSRWQQGNVFSCSVMHEALHNHYTQKSLSLSPGK light: QIVLSQSPAILSASPGEKVTMTCRASSSVSYIHWFQQKPGSSPKPWIYATSNLASGVPVRFSGSGSGTSYSLTISRVEAEDAATYYCQQWTSNPPTFGGGTKLEIKRTVAAPSVFIFPPSDEQLKSGTASVVCLLNNFYPREAKVQWKVDNALQSGNSQESVTEQDSKDSTYSLSSTLTLSKADYEKHKVYACEVTHQGLSSPVTKSFNRGEC | 0.067 absorbance (450 nm) |  | 0.119 absorbance (450 nm) |  |  |  |  |  |  | 0.037 absorbance (450 nm) |
| anti-CD20 (rituximab variable regions) rabbit IgG L234Q/L235S/G236R (antibody, also called 23.77) heavy: QVQLQQPGAELVKPGASVKMSCKASGYTFTSYNMHWVKQTPGRGLEWIGAIYPGNGDTSYNQKFKGKATLTADKSSSTAYMQLSSLTSEDSAVYYCARSTYYGGDWYFNVWGAGTTVTVSSGQPKAPSVFPLAPCCGDTPSSTVTLGCLVKGYLPEPVTVTWNSGTLTNGVRTFPSVRQSSGLYSLSSVVSVTSSSQPVTCNVAHPATNTKVDKTVAPSTCSKPTCPPPEQSRGPSVFIFPPKPKDTLMISRTPEVTCVVVDVSEDDPEVQFTWYINNEQVRTARPPLREQQFNSTIRVVSTLPIAHEDWLRGKEFKCKVHNKALPAPIEKTISKARGQPLEPKVYTMGPPREELSSRSVSLTCMINGFYPSDISVEWEKNGKAEDNYKTTPAVLDSDGSYFLYSKLSVPTSEWQRGDVFTCSVMHEALHNHYTQKSISRSPGK light: QIVLSQSPAILSASPGEKVTMTCRASSSVSYIHWFQQKPGSSPKPWIYATSNLASGVPVRFSGSGSGTSYSLTISRVEAEDAATYYCQQWTSNPPTFGGGTKLEIKRDPVAPSVLLFPPSKEELTTGTATIVCVANKFYPSDITVTWKVDGTTQQSGIENSKTPQSPEDNTYSLSSTLSLTSAQYNSHSVYTCEVVQGSASPIVQSFNRGDC |  |  |  |  |  |  | 0.048 absorbance (450 nm) | 0.051 absorbance (450 nm) | 147 % of wild-type reference |  |
